Results from patent publication US20030104532A1 (CHILDREN S MEDICAL CENTER, published 2003).
Values belong to the binder of their own block, whether it stands above or below them.

What was measured:
[1] = molecular target: T1, Human VEGF165R/NP-1 (neuropilin-1) (human, UniProt O14786 22-923); assay: ^125I-VEGF121 binding and chemical cross-linking to PAE/NP-1 cells, SDS-PAGE, autoradiography
T1 construct: Expressed from the cDNA in PAE cells (PAE/NP-1, PAE/KDR/NP-1) and COS-7 cells; also called VEGF165 receptor; clone A2
Experimental: FIG. 8. […] The binding was carried out in the presence of 1 μg/ml heparin. […] The cells were lysed and proteins were resolved by 6% SDS-PAGE. The polyacrylamide gel was dried and exposed to X-ray film.

[2] = molecular target: T1, Human VEGF165R/NP-1 (neuropilin-1); assay: Scatchard analysis (LIGAND program) of ^125I-VEGF165 binding to PAE/NP-1 cells
Experimental: Scatchard Analysis of VEGF₁₆₅ Binding to VEGF₁₆₅R/NP-1.7A. Increasing amounts of ¹²⁵I-VEGF₁₆₅ (0.1-50 ng/ml) were added to subconfluent cultures of PAE cells transfected with human VEGF₁₆₅R/NP-1 cDNA (PAE/NP-1 cells) in 48 well dishes. Non-specific binding was determined by competition with a 200-fold excess of unlabeled VEGF₁₆₅. After binding, the cells were washed, lysed and the cell-associated radioactivity was determined using a y counter.
The specific activity ranged from 40,000-100,000 cpm/ng protein. […] VEGF binding was quantitated by measuring the cell-associated radioactivity in a y-counter (Beckman, Gamma 5500). The counts represent the average of three wells. All experiments were repeated at least three times and similar results were obtained.

[3] = molecular target: T2, Human neuropilin-2 (NP-2) (human, UniProt O60462 21-931); assay: expression cloning: one of the seven single clones positive for ^125I-VEGF165 binding to transfected COS-7 cells
T2 sequence: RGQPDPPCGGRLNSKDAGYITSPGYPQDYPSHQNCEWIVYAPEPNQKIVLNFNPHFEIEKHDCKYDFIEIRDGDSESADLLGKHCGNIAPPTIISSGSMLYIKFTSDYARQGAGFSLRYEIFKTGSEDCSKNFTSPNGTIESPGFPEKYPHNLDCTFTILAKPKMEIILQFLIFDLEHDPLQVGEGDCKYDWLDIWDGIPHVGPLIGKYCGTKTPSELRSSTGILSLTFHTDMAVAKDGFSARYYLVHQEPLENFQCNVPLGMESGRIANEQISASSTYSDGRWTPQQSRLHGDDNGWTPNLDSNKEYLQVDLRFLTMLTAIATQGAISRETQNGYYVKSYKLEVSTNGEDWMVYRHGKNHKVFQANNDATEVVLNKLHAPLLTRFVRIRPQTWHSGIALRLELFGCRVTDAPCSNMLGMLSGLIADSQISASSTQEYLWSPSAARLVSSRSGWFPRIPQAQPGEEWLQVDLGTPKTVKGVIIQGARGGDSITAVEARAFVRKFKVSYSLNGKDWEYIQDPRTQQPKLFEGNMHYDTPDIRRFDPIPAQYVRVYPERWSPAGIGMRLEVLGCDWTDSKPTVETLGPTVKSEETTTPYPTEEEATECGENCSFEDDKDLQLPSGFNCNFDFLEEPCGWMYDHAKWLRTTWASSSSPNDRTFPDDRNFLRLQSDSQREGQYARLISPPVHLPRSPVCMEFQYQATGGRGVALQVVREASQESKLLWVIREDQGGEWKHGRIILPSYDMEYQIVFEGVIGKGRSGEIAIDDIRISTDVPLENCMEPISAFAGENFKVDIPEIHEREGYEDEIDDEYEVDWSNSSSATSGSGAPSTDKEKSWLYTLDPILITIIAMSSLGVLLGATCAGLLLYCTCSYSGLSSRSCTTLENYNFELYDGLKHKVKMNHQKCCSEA
Experimental: The E. coli were sub-divided into 50 separate pools and plated onto 50 LB ampicillin dishes, with each pool representing approximately 100 clones. DNA made from these pools was transfected into COS-7 cells which were screened for ¹²⁵I-VEGF₁₆₅ binding as described above. […] Each pool was plated onto separate LB ampicillin dishes and DNA was prepared from 96 individual colonies and screened in a 96-well two dimensional grid for ¹²⁵I-VEGF₁₆₅ binding to tranfected COS-7 cells as described above. […] The seven positive plasmid clones were amplified and their DNA was analyzed by restriction enzyme digestion. […] One clone from each group was submitted for automated DNA sequencing.
E. coli transformed with the plasmid library were divided into pools.

[4] = molecular target: T1, Human VEGF165R/NP-1 (neuropilin-1); assay: cell-based or functional assay
[5] = molecular target: T3, Neuropilin-1 on Dunning rat prostate carcinoma AT3.1 cells (rat, UniProt Q9QWJ9 22-922); assay: ^125I-VEGF165 cross-linking to Dunning rat prostate carcinoma cells
T3 construct: whole, on cells; also called VEGF165R/NP-1 (AT3.1 cells)

binding result [1]: no binding (tested: 10 ng/ml)
B1: Human recombinant VEGF121 (ligand, UniProt P15692-9 27-147, looked up)
chain: APMAEGGGQNHHEVVKFMDVYQRSYCHPIETLVDIFQEYPDEIEYIFKPSCVPLMRCGGCCNDEGLECVPTEESNITMQIMRIKPHQGQHIGEMSFLQHNKCECRPKKDRARQEKCDKPRR
modifications: radio-iodinated (^125I, IODO-BEADS) in the cross-linking experiments
notes: mature

Kd [2]: ~0.32 nM
binding result [3]: binds
231 breast carcinoma cell motility (Boyden chamber motility assay) [4]: 2 fold
binding result [5]: binds
B2: Human recombinant VEGF165 (ligand, UniProt P15692-4 27-191, looked up)
chain: APMAEGGGQNHHEVVKFMDVYQRSYCHPIETLVDIFQEYPDEIEYIFKPSCVPLMRCGGCCNDEGLECVPTEESNITMQIMRIKPHQGQHIGEMSFLQHNKCECRPKKDRARQENPCGPCSERRKHLFVQDPQTCKCSCKNTDSRCKARQLELNERTCRCDKPRR
modifications: radio-iodinated (^125I, IODO-BEADS) in the binding and cross-linking experiments; coupled to Sepharose beads in the affinity purification
notes: mature
